Test results published in article PMC10576003 (Nature Communications, 2023).

B1: MHAS2168 (natural protein, Mycobacterium hassiacum)
chain: MSAFPQTPNRLIRPRRTSRGIAISAGGLAVLLGALDTYVVVSIVTDIMRDVGIAVNQIQRVTPIITGYLLGYIAAMPLLGRASDRFGRKLLIQISLAGFALGSVITALATNLDVLVAGRVIQGAASGALLPVTLALAADLWATHKRAAVLGGVGAAQELGAVLGPIYGIFVVWLFHHWQAVFWVNVPLALIAMVLIHISLPPRVRTEEPQRVDVTGGLLLALALGLATIGLYNAEPDGKQVLPEYGPPLIIGAVIAAVAFLVWERFARTRLLDPAGVRFRPFLIALLVSLVTGGALMVTLVNVELFGQGVLGLDQDEAVFLLARFLIALPVGALLGGWIATRVGDRAVTAVGLLIAAGGFYLIAQWPADVLESRHDLGFVSLPTLDTDLAIAGFGLGLVIAPLTSAALRVVPAAQHGIASAAVVVARMIGMLIGIAALSAWGLYRFNQYLKEQLAALPPAPADFPGGQMAGQMMRLRTATVQAYVLQYGEIFAITAGLCVFGAVLGLFIAGRREHAEESADAVDGVSNARDRAPSA
notes: C-terminal fusion: 3C protease cleavage site, GFP, His10; residues of the 3C site may be left after cleavage; also called Rv1410 homologue from Mycobacterium hassiacum; MHAS2168^OUT; not shown: GFP, C-terminal, cleaved; His10, C-terminal, cleaved

Experiments:
megabody H2 (Mb_H2) = biological target: T1, megabody H2 (Mb_H2) ( | alpaca); experiment: cryo-EM structure; conditions: both partners purified
T1 construct: the first thirteen N-terminal residues that form the β-strand A of a nanobody, encoded by the vector pBXMBQ; not shown: His10, C-terminal, cleaved

MHAS2168 = biological target: B1; experiment: crystal structure; […]) at 20 °C; […]; conditions: both partners purified

Binder	binding result (megabody H2 (Mb_H2))	binding result (MHAS2168)
B1	binds	–
nanobody H2 (Nb_H2) (VHH, alpaca-derived nanobody selected by phage display against MHAS2168; they are in PDB 8PNL chain B (and chain D); MBP and His-tag removed with 3C protease; not shown: His10, N-terminal, cleaved) VHH: QGQLVESGGGLVQPGGSLRLSCADAGSIFNKFPMAWYRQAPGKERELVARISSGGSTNYADFVKGRFTISRDNAKSTLYLQMNSLKPEDTAMYYCARIINSASNIAYWGQGTRVTVSA	–	binds
